Reference: US20040014636A1, “Pharmaceutical compositions comprising a modulator of adamts-1” (priority 2000, published 2004)

What was measured:
[1] = system: 38 amino acid peptide derived from the published cleavage site on the proteoglycan aggrecan
[2] = target: versican (large proteoglycan population secreted by primary human aortic smooth muscle cells) (UniProt P13611)
[3] = system: ADAMTS-1 message in THP-1 cells; assay: Real time PCR of ADAMTS-1 message in THP-1 cells; type: cell-based, human; settings: PMA 160 nM, 0 to 8+1 days
Experimental: THP-1 cells were cultured in RPMI 1640 media supplemented with 10% FBS, penicillin-Streptomycin, sodium pyruvate, and nonessential amino acids (Sigma). PMA (Sigma) was dissolved in ethanol and diluted in the medium at a final concentration of 160 nM. LDL was equilibrated in PBS and diluted to 400 μg/mL and oxidized with 10 μM CuSO4 for 2.5 hours at 37 degrees C. The mildly oxidized LDL was equilibrated in RPMI 1640 and filter sterilized.
THP-1 cells were cultured in media containing PMA for 0, 2, 4, 8, and 8+1 days. Another set of plates were incubated with PMA for 8+1 days, with the mildly oxidized LDL also present in the last day. RNA was extracted and ADAMTS-1 message was analyzed by real time PCR.

[4] = system: versican; assay: Digestion of proteoglycans from aortic smooth muscle cells, size exclusion chromatography; type: biochemical, human; settings: total proteoglycan from primary aortic smooth muscle cells incubated with ADAMTS-1 before size exclusion chromatography
Experimental: Human aortic smooth muscle cells were purchased from Clonetics (BioWhittaker) and cultured according to supplier. For preparation of total proteoglycan population (total PG), AoSMCs were seeded at 3000 cells/cm2 in SmBM2 media (4×80 cm2 flasks). 5 days later, the cells were washed with Dulbecco's PBS and BME-Diploid medium with FBS was added to the cells. 1 day later, fresh DME-Diploid medium without FBS, containing 35S-Sulfate 33 μCi/mL and 3H-Leucine 17 μCi/mL, 15 mL/bottle and incubated for 3 days. The medium was transferred and dialyzed against binding buffer containing 8M urea, 2 mM EDTA, 0.5% Triton X-100, and 20 mM Tris-HCl, pH 7.5, for 48 hours and applied to a pre-equilibrated Hi-Trap Q column. After washing with 25 mL of Elution buffer A (binding buffer+0.25 M NaCl, proteoglycan population is eluted with a linear salt gradient: 0.25-3 M NaCl in binding buffer. Total counts in each fraction were counted by liquid scintillation counting. The fractions containing PGs were pooled, dialyzed against water, lyophilized and stored at −20 degrees C. until use (‘total PG’).
Separation by size exclusion chromatography was performed using a Superdex 200 HR 10/30 from Amersham Pharmacia biotech. […] 1 mL fractions were collected and 35S measured for each fraction.

Sequence of UniProt P13611 (P13611 21-3396): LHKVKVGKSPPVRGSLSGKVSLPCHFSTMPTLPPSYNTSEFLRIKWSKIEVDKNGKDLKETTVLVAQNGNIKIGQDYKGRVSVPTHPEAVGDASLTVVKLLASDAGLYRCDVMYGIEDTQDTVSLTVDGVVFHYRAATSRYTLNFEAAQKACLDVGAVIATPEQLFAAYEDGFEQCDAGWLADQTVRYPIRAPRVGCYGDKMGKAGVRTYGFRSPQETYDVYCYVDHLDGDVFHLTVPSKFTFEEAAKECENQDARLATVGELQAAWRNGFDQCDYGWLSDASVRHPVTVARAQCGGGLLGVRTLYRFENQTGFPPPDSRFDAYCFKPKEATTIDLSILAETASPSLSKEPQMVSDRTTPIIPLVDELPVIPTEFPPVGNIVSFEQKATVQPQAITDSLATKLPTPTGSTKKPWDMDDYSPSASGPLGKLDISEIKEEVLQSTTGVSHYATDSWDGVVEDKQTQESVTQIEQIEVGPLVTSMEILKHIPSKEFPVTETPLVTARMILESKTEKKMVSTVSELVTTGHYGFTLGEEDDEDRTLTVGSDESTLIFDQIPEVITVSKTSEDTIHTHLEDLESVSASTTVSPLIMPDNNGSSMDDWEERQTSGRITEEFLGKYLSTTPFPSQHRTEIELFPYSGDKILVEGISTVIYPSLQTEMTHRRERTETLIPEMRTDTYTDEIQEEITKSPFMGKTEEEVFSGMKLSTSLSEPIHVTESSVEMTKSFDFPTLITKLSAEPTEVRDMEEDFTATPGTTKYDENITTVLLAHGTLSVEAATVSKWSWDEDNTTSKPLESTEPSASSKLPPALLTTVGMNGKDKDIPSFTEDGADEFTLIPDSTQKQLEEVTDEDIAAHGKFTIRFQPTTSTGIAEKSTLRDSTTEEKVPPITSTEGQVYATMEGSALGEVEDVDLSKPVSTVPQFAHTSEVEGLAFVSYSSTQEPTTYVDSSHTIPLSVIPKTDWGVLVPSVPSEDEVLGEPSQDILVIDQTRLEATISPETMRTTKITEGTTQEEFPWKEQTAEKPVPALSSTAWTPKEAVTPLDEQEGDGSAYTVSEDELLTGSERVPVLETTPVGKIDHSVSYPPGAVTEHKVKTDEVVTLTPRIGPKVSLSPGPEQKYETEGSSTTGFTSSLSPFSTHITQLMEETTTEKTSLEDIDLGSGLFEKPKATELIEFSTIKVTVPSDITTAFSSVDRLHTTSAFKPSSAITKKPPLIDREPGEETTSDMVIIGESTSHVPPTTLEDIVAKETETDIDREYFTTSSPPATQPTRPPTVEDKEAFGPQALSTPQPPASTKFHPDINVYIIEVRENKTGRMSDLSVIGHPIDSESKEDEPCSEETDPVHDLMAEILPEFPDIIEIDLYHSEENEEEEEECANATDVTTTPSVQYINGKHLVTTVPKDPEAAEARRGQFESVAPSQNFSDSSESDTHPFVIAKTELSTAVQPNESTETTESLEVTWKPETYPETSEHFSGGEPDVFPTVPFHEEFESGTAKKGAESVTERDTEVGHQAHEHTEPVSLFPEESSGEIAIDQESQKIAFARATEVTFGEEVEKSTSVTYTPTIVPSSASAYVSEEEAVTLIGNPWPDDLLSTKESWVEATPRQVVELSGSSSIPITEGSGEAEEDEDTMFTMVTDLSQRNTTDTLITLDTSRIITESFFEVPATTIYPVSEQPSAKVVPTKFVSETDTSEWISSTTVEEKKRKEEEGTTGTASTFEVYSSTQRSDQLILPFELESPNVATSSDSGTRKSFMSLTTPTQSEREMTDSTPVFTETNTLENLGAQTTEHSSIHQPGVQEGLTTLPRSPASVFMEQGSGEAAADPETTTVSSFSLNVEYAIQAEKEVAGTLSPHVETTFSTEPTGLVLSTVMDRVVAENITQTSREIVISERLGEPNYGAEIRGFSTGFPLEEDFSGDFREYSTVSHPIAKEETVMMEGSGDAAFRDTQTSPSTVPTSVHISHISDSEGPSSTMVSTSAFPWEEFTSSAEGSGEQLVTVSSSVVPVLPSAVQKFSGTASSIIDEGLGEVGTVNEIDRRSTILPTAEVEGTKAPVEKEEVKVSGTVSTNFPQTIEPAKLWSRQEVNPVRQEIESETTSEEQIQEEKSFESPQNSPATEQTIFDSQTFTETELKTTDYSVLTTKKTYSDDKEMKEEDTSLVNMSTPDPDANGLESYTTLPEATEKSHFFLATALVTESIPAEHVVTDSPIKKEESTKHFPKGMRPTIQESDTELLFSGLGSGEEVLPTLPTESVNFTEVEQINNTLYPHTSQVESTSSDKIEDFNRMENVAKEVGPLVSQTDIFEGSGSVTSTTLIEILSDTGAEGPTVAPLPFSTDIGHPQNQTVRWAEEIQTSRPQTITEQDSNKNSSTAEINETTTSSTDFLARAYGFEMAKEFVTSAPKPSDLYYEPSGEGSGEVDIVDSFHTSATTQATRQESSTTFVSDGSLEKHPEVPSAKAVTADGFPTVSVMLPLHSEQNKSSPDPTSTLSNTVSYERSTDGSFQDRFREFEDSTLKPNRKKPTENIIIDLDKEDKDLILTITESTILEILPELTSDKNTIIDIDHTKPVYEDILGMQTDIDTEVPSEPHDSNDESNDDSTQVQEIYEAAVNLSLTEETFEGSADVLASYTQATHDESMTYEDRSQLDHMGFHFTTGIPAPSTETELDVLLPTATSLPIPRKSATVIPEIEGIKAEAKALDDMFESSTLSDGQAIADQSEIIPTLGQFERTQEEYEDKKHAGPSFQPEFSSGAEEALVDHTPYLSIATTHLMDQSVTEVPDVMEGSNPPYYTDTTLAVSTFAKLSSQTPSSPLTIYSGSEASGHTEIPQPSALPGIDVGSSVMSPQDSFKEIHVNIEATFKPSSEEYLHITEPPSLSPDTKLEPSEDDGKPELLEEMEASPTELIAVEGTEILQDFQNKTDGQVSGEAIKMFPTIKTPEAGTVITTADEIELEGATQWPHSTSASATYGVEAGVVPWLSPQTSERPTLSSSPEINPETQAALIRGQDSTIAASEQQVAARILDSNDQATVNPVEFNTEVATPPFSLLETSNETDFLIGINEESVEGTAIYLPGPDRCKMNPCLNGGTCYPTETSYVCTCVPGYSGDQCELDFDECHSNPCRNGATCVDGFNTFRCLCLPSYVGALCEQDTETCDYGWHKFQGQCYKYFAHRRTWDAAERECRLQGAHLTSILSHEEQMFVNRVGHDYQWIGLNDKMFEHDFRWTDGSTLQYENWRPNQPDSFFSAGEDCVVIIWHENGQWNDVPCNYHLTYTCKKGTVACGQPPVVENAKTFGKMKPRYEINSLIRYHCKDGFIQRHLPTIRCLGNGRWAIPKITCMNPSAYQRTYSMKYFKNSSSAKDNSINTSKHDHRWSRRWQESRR

recombinant ADAMTS-1
cleavage of peptide substrate, HPLC analysis [1]: Cleavage of the peptide by recombinant ADAMTS-1 has been confirmed by HPLC analysis | size exclusion chromatography of total proteoglycan incubated with or without ADAMTS-1 [2]: In the presence of ADAMTS-1, the size of the large proteoglycan population made up primarily of versican is reduced and the size of the peak corresponding to smaller sized proteoglycan population is increased

CCCCCCCCCCCCCC(=O)O[C@@H]1[C@@H](C)[C@@]2(O)[C@@H](C=C(CO)C[C@]3(O)C(=O)C(C)=C[C@@H]23)[C@@H]2C(C)(C)[C@]12OC(C)=O [PMA]
ADAMTS-1 message level [3]: induced

B1: ADAMTS-1: metalloproteinase (A Disintegrin-like And Metalloprotease with Thrombospondin type 1 motif), incubated with total proteoglycan (protein)
chain: FVSSHRYVETMLVADQSMAEFHGSGLKHYLLTLFSVAARLYKHPSIRNSVSLVVVKILVIHDEQKGPEVTSNAALTLRNFCNWQKQHNPPSDRDAEHYDTAILFTRQDLCGSQTCDTLGMADVGTVCDPSRSCSVIEDDGLQAAFTTAHELGHVFNMPHDDAKQCASLNGVNQDSHMMASMLSNLDHSQPWSPCSAYMITSFLDNGHGECLMDKPQNPIQLPGDLPGTSYDANRQCQFTFGEDSKHCPDAASTCSTLWCTGTSGGVLVCQTKHFPWADGTSCGEGKWCINGKCVNKTDRKHFDTPFHGSWGMWGPWGDCSRTCGGGVQYTMRECDNPVPKNGGKYCEGKRVRYRSCNLEDCPDNNGKTFREEQCEAHNEFSKASFGSGPAVEWIPKYAGVSPKDRCKLICQAKGIGYFFVLQPKVVDGTPCSPDSTSVCVQGQCVKAGCDRIIDSKKKFDKCGVCGGNGSTCKKISGSVTSAKPGYHDIITIPTGATNIEVKQRNQRGSRNNGSFLAIKAADGTYILNGDYTLSTLEQDIMYKGVVLRYSGSSAALERIRSFSPLKEPLTIQVLTVGNALRPKIKYTYFVKKKKESFNAIPTFSAWVIEEWGECSKSCELGWQRRLVECRDINGQPASECAKEVKPASTRPCADHPCPQWQLGEWSSCSKTCGKGYKKRSLKCLSHDGGVLSHESCDPLKKPKHFIDFCTMAECS
cleavage of large proteoglycan population (versican) [4]: the size of the large proteoglycan peak is diminished
